The target in assay [1] is T1, His6-GIGYF2 GYF domain (residues 529-597) (human, UniProt Q6Y7W6 529-597).
T1 sequence (looked up): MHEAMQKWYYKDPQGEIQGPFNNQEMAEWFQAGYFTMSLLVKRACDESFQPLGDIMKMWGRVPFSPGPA
The assay can be described thus: pull-down.

The target in assay [2] is T2, His6-GIGYF1 GYF domain (residues 470-538) (human, UniProt O75420 470-538).
T2 sequence (looked up): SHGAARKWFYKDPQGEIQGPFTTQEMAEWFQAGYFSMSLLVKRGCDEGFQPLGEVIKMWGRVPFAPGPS
The assay is described as follows: pull-down.

B1: GST-tagged fragment of the first tetra-proline region of TTP (residues 68-78) (peptide, UniProt P26651 68-78, looked up)
chain: GWVPPPPGFAP
Regarding B1, the binding result in assay [1] and in assay [2] was “binds” in each case.

These data come from doi:10.1101/2021.08.20.457040 (bioRxiv, 2021).
